The values below come from PMC7755716.

This data set deals with DtxR (Corynebacterium glutamicum (derived from KCTC No. 1445)). Kind of data set: EMSA. As to conditions: 150 uM Mn2+, 5 mM Mg2+, 50 mM Tris-HCl pH 7.5, 5 mM MgCl2, 40 mM KCl, 5% glycerol, 1 mM DTT, 150 uM MnCl2, 30 min at room temperature, 200 ng DNA, 0-350 ng DtxR dimer in 10 ul, 15% ….

For “NCgl1959 regulatory region, C-14G (399 bp)”, the binding signal (% of wild-type affinity) was 40. Take “NCgl1959 regulatory region, wild type (399 bp)”: where the note is “reference”, the binding signal (% of wild-type affinity) was 100.
